Usually koff stands for the rate constant with which the complex falls apart. Higher therefore signals fast dissociation. A word on the kon: it is the rate constant with which the complex forms. Read a high kon as fast association. Broadly, the Kd is the constant that tells how readily two partners part at equilibrium.

In assay [1] the target is PfEBA175 FL (entire ectodomain of P. falciparum 3D7 EBA175), Cd4-tagged and enzymatically biotinylated (P. falciparum (3D7)). In words: SPR; homophilic; biotinylated PfEBA175 FL immobilised on streptavidin chip, soluble PfEBA175 FL as analyte; quantified from the dissociation phase; 37 °C, HBS-EP. Background: Surface plasmon resonance follows binding to a sensor surface in real time, without labels.

Assay [2] concerns the target native glycophorin-A extracted from human erythrocytes, chemically biotinylated (human) (UniProt P02724). In words: SPR; kinetic; biotinylated GYPA immobilised on streptavidin chip; analyte injected at 100 μl/min; 37 °C, HBS-EP; nonlinear fit of association and dissociation phases.
Assay [3] shares this target. Description: SPR; equilibrium; biotinylated GYPA immobilised on streptavidin chip, biotinylated Cd4 tag as reference; SEC-separated analyte injected at 20 μl/min; BIAcore T100, 37 °C, HBS-EP; steady-state 1:1 fit.
Assay [4] has as its target PfEBA175 FL (entire ectodomain of P. falciparum 3D7 EBA175), Cd4-tagged and enzymatically biotinylated (P. falciparum (3D7)). Description: SPR; equilibrium; biotinylated PfEBA175 FL immobilised, serial dilutions of PfEBA175 FL or RII injected; responses at equilibrium as a fraction of calculated Rmax; 37 °C, HBS-EP.

On to “PfEBA175 FL (entire ectodomain of P. falciparum 3D7 EBA175), Cd4- and hexa-His-tagged, soluble (domain or fragment)”, for which the koff was 0.04 s⁻¹ in assay [1] and 0.0968 s⁻¹ in assay [2]. The substance also gave a kon in assay [2] of 860000 M⁻¹ s⁻¹. In addition, the dissociation constant (Kd) in assay [3] was 0.26 µM.

As to “PfEBA175 RII (region II, tandem DBL domains F1 and F2), Cd4- and hexa-His-tagged, soluble (domain or fragment)”, the fold weaker binding affinity to PfEBA175 FL than that of PfEBA175 FL in assay [4] was 70 fold. Moreover, the Kd in assay [3] stood at 2.52 µM.

Source of the values: publication PMC3820850.
